{
  "source": "patent EP4792891A2",
  "about": "(LTZ Therapeutics Inc., dated 2026)",
  "molecules": {"B1": {"name": "CD79b/5C7 (1+1 B) Fc-optimized (bispecific antibody, human IgG1, kappa)", "heavy 1": "EQQLVETGGGLIQPGGSLRLSCAASGFTINIDYWISWVRQAPGKGLEWIGIIDPGDGTTYFAIWVSGRFTISFDNSKNTVYLQMNSLRAEDTAVYFCVREFSASAYQYDLWGPGTLVTVSSASTKGPSVFPLAPSSKSTSGGTAALGCLVKDYFPEPVTVSWNSGALTSGVHTFPAVLQSSGLYSLSSVVTVPSSSLGTQTYICNVNHKPSNTKVDKKVEPKSCDKTHTCPPCPAPELLAGPSVFLFPPKPKDTLMISRTPEVTCVVVDVSHEDPEVKFNWYVDGVEVHNAKTKPREEQYNSTYRVVSVLTVLHQDWLNGKEYKCKVSNKALPLPEEKTISKAKGQPREPQVYTLPPSRDELTKNQVSLSCAVKGFYPSDIAVEWESNGQPENNYKTTPPVLDSDGSFFLVSKLTVDKSRWQQGNVFSCSVMHEALHNHYTQKSLSLSPGK", "heavy 2": "DIQMTQSPSSLSASVGDRVTITCQASESVDRNNRLAWFQQKPGKPPKLLIYTTSTLASGVPSRFSGSGSGTDFTLTISSLQPEDVATYYCAGYRGAHTDGDAFGGGTKVEIKGGGGSGGGGSGGGGSGGGGSEQQLVESGGGLVKPGGSLRLSCAASGFSFSRSSYMCWVRQAPGKGLEWIGCLSVGDGHTYYASWAKGRFTISKDSAKNSVYLQMNSLRAEDTAVYFCARAPSYSGDGGHGYDLWGPGTLVTVSSDKTHTCPPCPAPELLAGPSVFLFPPKPKDTLMISRTPEVTCVVVDVSHEDPEVKFNWYVDGVEVHNAKTKPREEQYNSTYRVVSVLTVLHQDWLNGKEYKCKVSNKALPLPEEKTISKAKGQPREPQVYTLPPSRDELTKNQVSLWCLVKGFYPSDIAVEWESNGQPENNYKTTPPVLDSDGSFFLYSKLTVDKSRWQQGNVFSCSVMHEALHNHYTQKSLSLSPGK", "light": "ELVMTQSPATLSVSPGERATLSCRASEDIENYLAWYQQKPGQPPRLLIYRASTLSSGVPARFSGSGSGTEFTLTISSLQSEDFAVYYCQQGYRNSNVDNPFGGGTKVEIKRTVAAPSVFIFPPSDEQLKSGTASVVCLLNNFYPREAKVQWKVDNALQSGNSQESVTEQDSKDSTYSLSSTLTLSKADYEKHKVYACEVTHQGLSSPVTKSFNRGEC"}, "B2": {"name": "CD79b/5C7 (2+2 B) Fc-optimized (bispecific antibody, human IgG1, kappa)", "heavy": "EQQLVETGGGLIQPGGSLRLSCAASGFTINIDYWISWVRQAPGKGLEWIGIIDPGDGTTYFAIWVSGRFTISFDNSKNTVYLQMNSLRAEDTAVYFCVREFSASAYQYDLWGPGTLVTVSSASTKGPSVFPLAPSSKSTSGGTAALGCLVKDYFPEPVTVSWNSGALTSGVHTFPAVLQSSGLYSLSSVVTVPSSSLGTQTYICNVNHKPSNTKVDKKVEPKSCDKTHTCPPCPAPELLAGPSVFLFPPKPKDTLMISRTPEVTCVVVDVSHEDPEVKFNWYVDGVEVHNAKTKPREEQYNSTYRVVSVLTVLHQDWLNGKEYKCKVSNKALPLPEEKTISKAKGQPREPQVYTLPPSRDELTKNQVSLTCLVKGFYPSDIAVEWESNGQPENNYKTTPPVLDSDGSFFLYSKLTVDKSRWQQGNVFSCSVMHEALHNHYTQKSLSLSPGGGGGSGGGGSGGGGSDIQMTQSPSSLSASVGDRVTITCQASESVDRNNRLAWFQQKPGKPPKLLIYTTSTLASGVPSRFSGSGSGTDFTLTISSLQPEDVATYYCAGYRGAHTDGDAFGCGTKVEIKGGGGSGGGGSGGGGSGGGGSEQQLVESGGGLVKPGGSLRLSCAASGFSFSRSSYMCWVRQAPGKCLEWIGCLSVGDGHTYYASWAKGRFTISKDSAKNSVYLQMNSLRAEDTAVYFCARAPSYSGDGGHGYDLWGPGTLVTVSS", "light": "B1 light"}},
  "key": {"[1]": {"biological_target": "EGFR on DLD-1 cells (UniProt P00533)", "test": "cell-based or functional assay"}, "[2]": {"biological_target": "T1, CD79b on cells (Ramos cells, endogenous B cells) (human, UniProt P40259 29-229)", "T1 sequence (looked up)": "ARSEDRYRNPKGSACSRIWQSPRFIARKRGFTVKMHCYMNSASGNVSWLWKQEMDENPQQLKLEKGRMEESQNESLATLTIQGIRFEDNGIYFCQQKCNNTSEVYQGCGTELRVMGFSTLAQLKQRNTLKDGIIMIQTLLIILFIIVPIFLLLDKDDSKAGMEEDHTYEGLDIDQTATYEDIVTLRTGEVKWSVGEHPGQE", "test": "cell-based or functional assay"}},
  "data": [
    {"molecule": "Necitumumab (antibody)", "values": [
      {"measurement": "IC50 (nM), DLD-1 cell killing by M0 macrophages", "setting": "[1]", "value": 0.0574, "unit": "nM"}
    ]},
    {"molecule": "B1", "values": [
      {"measurement": "IC50 (nM), killing of endogenous B cells by PBMCs, Donor 234", "setting": "[2]", "value": 0.0453, "unit": "nM"}
    ]},
    {"molecule": "B2", "values": [
      {"measurement": "IC50 (nM), killing of endogenous B cells by PBMCs, Donor 367", "setting": "[2]", "value": 0.0168, "unit": "nM"},
      {"measurement": "IC50 (nM), killing of endogenous B cells by PBMCs, Donor 431", "setting": "[2]", "value": 0.0168, "unit": "nM"}
    ]}
  ]
}
